These results are taken from US20250002557A1.

For experiment [1], the target named is VEGF-A165 (UniProt P15692). The experiment is described as follows: blocking ELISA, VEGF-A165 to VEGFR2 (Example 13). A general note: ELISA stands for enzyme-linked immunosorbent assay.
In experiment [2] the target is VEGF-A165 (UniProt P15692). The experiment is described as follows: blocking ELISA: His-VEGF-A165 premixed with sample, binding to coated VEGFR2-Fc read with anti-His-HRP.
Experiment [3] addresses VEGF-A165 (UniProt P15692). The experiment is described as follows: blocking ELISA, VEGF A165 to VEGFR2 (Example 16).
For experiment [4], the target named is T1, PIGF (UniProt P49763).
T1 sequence (looked up): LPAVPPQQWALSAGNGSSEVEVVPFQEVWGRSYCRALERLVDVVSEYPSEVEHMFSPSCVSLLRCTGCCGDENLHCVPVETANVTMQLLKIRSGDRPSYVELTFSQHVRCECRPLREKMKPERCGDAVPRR
The experiment is described as follows: ELISA, PlGF coated, anti-human Fc-HRP, OD450.

Experiment [5] concerns the target T2, VEGF-B (UniProt P49765).
T2 sequence (looked up): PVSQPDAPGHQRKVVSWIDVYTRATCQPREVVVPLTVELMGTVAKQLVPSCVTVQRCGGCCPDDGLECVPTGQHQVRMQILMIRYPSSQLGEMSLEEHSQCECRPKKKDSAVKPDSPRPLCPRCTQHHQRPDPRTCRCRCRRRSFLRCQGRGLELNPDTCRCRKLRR
The experiment is described as follows: ELISA, VEGF-B coated, anti-human Fc-HRP, OD450.

Experiment [6] addresses T2, VEGF-B. The experiment is described as follows: ELISA, VEGF-B coated, anti-human Fc-HRP, OD450. This is another data set of the same source.
Experiment [7] deals with T1, PIGF. The experiment is described as follows: ELISA, PlGF coated, anti-human Fc-HRP, OD450. This is another data set of the same source.
Experiment [8] has as its target VEGF-A165 (UniProt P15692). The experiment is described as follows: blocking ELISA, VEGF-A 165-His to coated VEGFR2-Fc; row head prints uM, paragraph 129 and ng/ml row give nM.
The target in experiment [9] is T1, PIGF. The experiment is described as follows: ELISA, PlGF coated, anti-human Fc-HRP, OD450. This is another data set of the same source.
For experiment [10], the target named is VEGF-A165 (UniProt P15692). The experiment is described as follows: blocking ELISA, VEGF-A 165-His to coated VEGFR2-Fc.
For experiment [11], the target named is VEGF-A165 (UniProt P15692). The experiment is described as follows: blocking ELISA, VEGF A165 to VEGFR1 (Example 16).
Experiment [12] concerns the target T2, VEGF-B. The experiment is described as follows: ELISA, VEGF-B coated, anti-human Fc-HRP, OD450. This is another data set of the same source.
The target in experiment [13] is VEGF-A165 (UniProt P15692). The experiment is described as follows: ELISA binding to VEGF-A165, absorbance 450 nm.
Experiment [14] addresses VEGF-A165 (UniProt P15692). The experiment is described as follows: blocking ELISA, VEGF-A165 to VEGFR1 (Example 13).

Read-outs that look alike come from different tables or passages of the source.

Eylea (Fc fusion), sequence (chain): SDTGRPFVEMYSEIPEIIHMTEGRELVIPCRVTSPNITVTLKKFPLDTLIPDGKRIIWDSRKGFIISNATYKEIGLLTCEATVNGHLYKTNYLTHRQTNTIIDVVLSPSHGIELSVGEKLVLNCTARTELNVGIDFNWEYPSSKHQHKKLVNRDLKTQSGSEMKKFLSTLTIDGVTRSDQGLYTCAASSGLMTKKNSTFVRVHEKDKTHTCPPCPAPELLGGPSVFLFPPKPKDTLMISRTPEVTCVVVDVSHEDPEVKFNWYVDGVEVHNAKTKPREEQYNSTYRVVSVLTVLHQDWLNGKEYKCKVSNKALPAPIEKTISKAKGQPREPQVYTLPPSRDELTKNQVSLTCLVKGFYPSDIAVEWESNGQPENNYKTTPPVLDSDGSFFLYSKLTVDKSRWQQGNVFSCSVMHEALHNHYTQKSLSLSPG
VEGF-A165, sequence (P15692 other isoform, or with tags, fused parts or gaps limits assumed): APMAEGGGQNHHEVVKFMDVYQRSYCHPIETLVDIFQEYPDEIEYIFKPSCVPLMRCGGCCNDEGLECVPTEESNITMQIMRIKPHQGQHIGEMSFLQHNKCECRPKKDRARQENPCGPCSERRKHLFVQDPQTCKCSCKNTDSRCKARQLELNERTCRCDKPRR

For the substance Eylea (Fc fusion), the EC50 with VEGF-A165 [1] came to 2.23 nM; in the experiment with VEGF-A165 [2], 1.7 nM; with VEGF-A165 [3], 3.94 nM; with PIGF [4], 0.223 nM; with VEGF-B [5], 1.07 nM; with VEGF-B [6], 0.64 nM. For the same substance, the EC50 with PIGF [7] amounted to 0.17 nM; with VEGF-A165 [8], 3200 nM; with PIGF [9], 0.1 nM; in the experiment with VEGF-A165 [10] it was 0.32 µg/mL; with VEGF-A165 [11], 6.96 nM; with VEGF-B [12] it was 0.94 nM. Further, the EC50 in the experiment with VEGF-A165 [13] was 0.138 nM; with VEGF-A165 [14], 4.64 nM.

Broadly, the EC50 is the concentration that produces a half-maximal response. Read a low EC50 as an effect from little substance.
